Data taken from patent publication US20250296984A1 (THELPER, published 2025).
Read-outs that look alike come from different tables or passages of the source.

T1: US28 of HCMV strain TB40/E fused to a C-terminal 6His tag (human cytomegalovirus (HCMV) strain …, UniProt P69332 1-354)
T1 construct: also called TB40/E form of US28
T1 chain: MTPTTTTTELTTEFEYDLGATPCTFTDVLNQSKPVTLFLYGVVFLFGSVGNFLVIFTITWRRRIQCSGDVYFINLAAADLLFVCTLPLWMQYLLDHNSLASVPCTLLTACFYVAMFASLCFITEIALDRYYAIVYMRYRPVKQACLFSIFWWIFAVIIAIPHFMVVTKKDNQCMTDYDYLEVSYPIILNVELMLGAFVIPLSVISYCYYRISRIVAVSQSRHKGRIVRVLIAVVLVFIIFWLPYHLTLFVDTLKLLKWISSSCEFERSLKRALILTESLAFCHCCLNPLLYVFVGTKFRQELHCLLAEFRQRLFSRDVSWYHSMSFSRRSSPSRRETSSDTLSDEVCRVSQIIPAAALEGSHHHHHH

T2: mutated US28 (artificial form with all known US28 mutations) fused to a C-terminal 6His tag (artificial variant of human …, UniProt P69332 1-354)
T2 construct: also called mutated strain; CHO-mutated strain
T2 chain: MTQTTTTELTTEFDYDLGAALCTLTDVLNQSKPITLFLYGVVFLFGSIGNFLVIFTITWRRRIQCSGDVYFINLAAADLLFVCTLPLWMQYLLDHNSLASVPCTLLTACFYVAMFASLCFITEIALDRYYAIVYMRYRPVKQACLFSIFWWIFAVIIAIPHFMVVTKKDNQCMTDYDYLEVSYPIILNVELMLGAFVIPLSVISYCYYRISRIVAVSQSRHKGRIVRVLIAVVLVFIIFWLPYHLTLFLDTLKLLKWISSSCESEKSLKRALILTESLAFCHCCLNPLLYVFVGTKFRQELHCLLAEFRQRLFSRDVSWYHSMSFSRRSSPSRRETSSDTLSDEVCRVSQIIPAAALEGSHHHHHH

T3: US28 of HCMV strain DB fused to a C-terminal 6His tag (human cytomegalovirus (HCMV) strain DB, UniProt P69332 1-354)
T3 chain: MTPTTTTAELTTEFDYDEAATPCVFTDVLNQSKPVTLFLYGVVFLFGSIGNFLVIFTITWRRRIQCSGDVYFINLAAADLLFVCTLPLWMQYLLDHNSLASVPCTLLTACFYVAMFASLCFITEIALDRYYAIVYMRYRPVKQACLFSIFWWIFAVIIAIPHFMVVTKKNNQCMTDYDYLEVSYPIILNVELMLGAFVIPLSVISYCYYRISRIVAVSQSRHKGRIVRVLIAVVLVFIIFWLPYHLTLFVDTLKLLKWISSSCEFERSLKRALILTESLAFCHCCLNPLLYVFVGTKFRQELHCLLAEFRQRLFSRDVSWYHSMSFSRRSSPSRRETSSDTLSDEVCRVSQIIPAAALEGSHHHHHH

T4: US28 of HCMV strain Ad169 (human cytomegalovirus (HCMV) strain …, UniProt P69332 1-354)
T4 sequence: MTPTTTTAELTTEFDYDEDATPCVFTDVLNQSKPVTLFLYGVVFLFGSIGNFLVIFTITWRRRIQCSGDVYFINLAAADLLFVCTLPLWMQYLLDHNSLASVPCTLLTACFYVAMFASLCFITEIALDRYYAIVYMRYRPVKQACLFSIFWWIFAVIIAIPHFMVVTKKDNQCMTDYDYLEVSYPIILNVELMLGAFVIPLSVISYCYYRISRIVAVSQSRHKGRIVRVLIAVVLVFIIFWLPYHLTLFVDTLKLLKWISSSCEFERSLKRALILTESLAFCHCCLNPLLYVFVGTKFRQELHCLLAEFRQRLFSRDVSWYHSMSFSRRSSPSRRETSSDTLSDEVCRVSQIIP

T5: US28 of HCMV strain Merlin fused to a C-terminal 6His tag (human cytomegalovirus (HCMV) strain …, UniProt F5HF62 1-354)
T5 construct: also called Merlin-encoded US28
T5 sequence: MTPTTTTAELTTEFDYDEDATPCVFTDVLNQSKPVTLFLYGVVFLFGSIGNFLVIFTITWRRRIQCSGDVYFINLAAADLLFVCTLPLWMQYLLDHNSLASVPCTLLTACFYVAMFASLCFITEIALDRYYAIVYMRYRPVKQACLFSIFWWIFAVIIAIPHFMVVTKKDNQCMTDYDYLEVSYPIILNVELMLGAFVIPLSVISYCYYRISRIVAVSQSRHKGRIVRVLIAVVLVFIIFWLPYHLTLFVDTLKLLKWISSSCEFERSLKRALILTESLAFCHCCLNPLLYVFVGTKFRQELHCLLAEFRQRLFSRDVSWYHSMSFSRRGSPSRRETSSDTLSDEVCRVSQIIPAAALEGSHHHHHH

T6: US28 of HCMV strain VHL/E fused to a C-terminal 6His tag (human cytomegalovirus (HCMV) strain …, UniProt P69332 1-354)
T6 construct: also called VHL/E-encoded US28
T6 chain: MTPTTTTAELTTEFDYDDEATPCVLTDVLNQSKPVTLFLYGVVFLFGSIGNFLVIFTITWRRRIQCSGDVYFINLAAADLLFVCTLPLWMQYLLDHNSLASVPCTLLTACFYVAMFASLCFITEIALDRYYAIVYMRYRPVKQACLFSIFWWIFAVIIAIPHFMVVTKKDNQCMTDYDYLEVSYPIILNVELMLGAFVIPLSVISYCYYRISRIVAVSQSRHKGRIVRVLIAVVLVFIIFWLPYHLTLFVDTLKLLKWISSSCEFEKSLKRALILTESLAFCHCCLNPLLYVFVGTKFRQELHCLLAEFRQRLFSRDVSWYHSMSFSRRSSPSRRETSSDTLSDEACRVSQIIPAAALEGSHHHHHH


Columns and labels:
[1] = target: T1, US28 of HCMV strain TB40/E fused to a …; assay: flow cytometry, CHO cells (FIG. 21C)
[2] = target: T1, US28 of HCMV strain TB40/E fused to a …; assay: flow cytometry, CHO cells (FIG. 21D)
[3] = target: T2, mutated US28 (artificial form with all …); assay: flow cytometry, CHO cells expressing the mutated US28
[4] = target: T3, US28 of HCMV strain DB fused to a …; assay: flow cytometry, CHO cells expressing US28 of strain DB
[5] = target: T1, US28 of HCMV strain TB40/E fused to a …; assay: flow cytometry, CHO cells expressing US28 of strain TB40/E
[6] = target: T2, mutated US28 (artificial form with all …); assay: flow cytometry, CHO-mutated strain against control CHO cells (FIG. 21B)
[7] = target: T3, US28 of HCMV strain DB fused to a …; assay: flow cytometry, CHO-US28 against control CHO cells
[8] = target: T3, US28 of HCMV strain DB fused to a …; assay: flow cytometry, CHO-US28 against control CHO cells
[9] = target: T4, US28 of HCMV strain Ad169; assay: flow cytometry, HCMV Ad169 infected against Mock MRC-5 cells
[10] = target: T3, US28 of HCMV strain DB fused to a …; assay: flow cytometry, processed data of FIG. 33
[11] = target: T1, US28 of HCMV strain TB40/E fused to a …; assay: flow cytometry, processed data of FIG. 33
[12] = target: T5, US28 of HCMV strain Merlin fused to a …; assay: flow cytometry, processed data of FIG. 33
[13] = target: T6, US28 of HCMV strain VHL/E fused to a …; assay: flow cytometry, processed data of FIG. 33; reference
[14] = target: T3, US28 of HCMV strain DB fused to a …; assay: flow cytometry, transfected HEK Phoenix cells, 6.76 nM
[15] = target: T1, US28 of HCMV strain TB40/E fused to a …; assay: as above
[16] = target: T6, US28 of HCMV strain VHL/E fused to a …; assay: as above
[17] = target: T5, US28 of HCMV strain Merlin fused to a …; assay: as above

Binder | % change in absolute binding between the DB and TB40/E forms [1] | % retention of binding activity between the DB and TB40/E forms [2] | % of cells bound [3] | binding result [3] | % of cells bound [4] | % of cells bound [5] | specificity (US28 cells over control cells) [6] | binding specificity comparative to the specificity displayed by VUN100 [7] | binding specificity comparative to the specificity displayed by VUN100 [8] | fold binding, infected over uninfected cells [9] | variation in binding relative to US28 as encoded by VHL/E [10] | variation in binding relative to US28 as encoded by VHL/E [11] | variation in binding relative to US28 as encoded by VHL/E [12] | variation in binding relative to US28 as encoded by VHL/E [13] | binding value (Preliminary Binding Data) [14] | binding value (Preliminary Binding Data) [15] | binding value (Preliminary Binding Data) [16] | binding value (Preliminary Binding Data) [17]
monovalent VUN100 (VHH, also called Mv VUN100; VUN100 Ab) VHH: EVQLVESGGGLVQPGGSLRLACAVSGPGLIFKFTGVAWYRRQVPGAKRGLVALITGDGATRYGDSVKGRFTVSRDIAAKRVYLEMNDLRSEDTAVYYCKTGEYWGQGTQVTVSS | > 35% | ≤ 60% | 1.41% | no binding | 6.91% | 4.33% | < 1 fold | – | – | – | – | – | – | – | – | – | – | –
US28-13-5G6-1D3 (antibody, V domains shown, also called US28-13-5G6-1D3 rAb; 13-5G6-1D3 clone) VH: EVKLVESGGGLVQPGGSLRLACATSGFTFTDYYMSWVRQPPGKALEWLGFIRSKANGYTTEYSASVKGRFTISRDNSQSILYLQMNTLRSEDSATYYCARDERRTAWLAYWGQGTLVTVSA VL: DVLMTQTPLSLPVSLGDQASISCRSSQSIVHSNGNTYLDWYLQKPGQSPKLLIYKVSNRFSGVPDRFSGSGSGTDFTLKISRVEAEDLGVYYCFQGSHVPTWTFGGGTKLEIKR | < 10% | ~100% | 12.9% | – | 16.6% | 18.2% | ~15 fold | 1.65 fold | 1.65 fold | ~16 fold | – | – | – | – | – | – | – | –
bivalent VUN100 (VHH, also called VUN100b; BvVUN100) EVQLVESGGGLVQPGGSLRLACAVSGPGLIFKFTGVAWYRRQVPGAKRGLVALITGDGATRYGDSVKGRFTVSRDIAAKRVYLEMNDLRSEDTAVYYCKTGEYWGQGTQVTVSSGGGGSGGGGSGGGGSGGGGSGGGGSGGGGSEVQLVESGGGLVQPGGSLRLACAVSGPGLIFKFTGVAWYRRQVPGAKRGLVALITGDGATRYGDSVKGRFTVSRDIAAKRVYLEMNDLRSEDTAVYYCKTGEYWGQGTQVTVSSEQKLISEEDLHHHHHH | > 40% | ≤ 60% | 2.58% | – | 9.24% | 5.2% | 2.43 fold | – | – | – | -2.92 | -14.8 | -2.41 | 0 | 0.62 | 0.16 | 2.29 | 0.71
